Assay results: patent publication US20210388087A1 (Chugai, published 2021)

B1: CE115HA000/GLS3000 K50P (antibody, IgG1, name in Kabat numbering, V domains shown)
VH: QVQLVESGGGVVQPGRSLRLSCAASGFTFSNAWMHWVRQAPGKGLEWVAQIKAKSNNYATYYAESVKGRFTISRDDSKNSLYLQMNSLKTEDTAVYYCRYVHYGAYYGVDAWGQGTTVTVSS
VL: DIVMTQSPLSLPVTPGEPASISCRSSQSLVHSNRNTYLHWYQQKPGQAPRLLIYPVSNRFSGVPDRFSGSGSGTDFTLKISRVEAEDVGVYYCGQGTQVPYTFGQGTKLEIK
notes: one-arm IgG1
B2: CE115HA000/GLS3000 L27bI (antibody, IgG1, name in Kabat numbering, V domains shown)
VH: QVQLVESGGGVVQPGRSLRLSCAASGFTFSNAWMHWVRQAPGKGLEWVAQIKAKSNNYATYYAESVKGRFTISRDDSKNSLYLQMNSLKTEDTAVYYCRYVHYGAYYGVDAWGQGTTVTVSS
VL: DIVMTQSPLSLPVTPGEPASISCRSSQSIVHSNRNTYLHWYQQKPGQAPRLLIYKVSNRFSGVPDRFSGSGSGTDFTLKISRVEAEDVGVYYCGQGTQVPYTFGQGTKLEIK
notes: one-arm IgG1
B3: CE115HA000/GLS3000 K50Y (antibody, IgG1, name in Kabat numbering, V domains shown)
VH: QVQLVESGGGVVQPGRSLRLSCAASGFTFSNAWMHWVRQAPGKGLEWVAQIKAKSNNYATYYAESVKGRFTISRDDSKNSLYLQMNSLKTEDTAVYYCRYVHYGAYYGVDAWGQGTTVTVSS
VL: DIVMTQSPLSLPVTPGEPASISCRSSQSLVHSNRNTYLHWYQQKPGQAPRLLIYYVSNRFSGVPDRFSGSGSGTDFTLKISRVEAEDVGVYYCGQGTQVPYTFGQGTKLEIK
notes: one-arm IgG1
B4: CE115HA000/GLS3000 L27bS (antibody, IgG1, name in Kabat numbering, V domains shown)
VH: QVQLVESGGGVVQPGRSLRLSCAASGFTFSNAWMHWVRQAPGKGLEWVAQIKAKSNNYATYYAESVKGRFTISRDDSKNSLYLQMNSLKTEDTAVYYCRYVHYGAYYGVDAWGQGTTVTVSS
VL: DIVMTQSPLSLPVTPGEPASISCRSSQSSVHSNRNTYLHWYQQKPGQAPRLLIYKVSNRFSGVPDRFSGSGSGTDFTLKISRVEAEDVGVYYCGQGTQVPYTFGQGTKLEIK
notes: one-arm IgG1
B5: CE115HA000/GLS3000 K50S (antibody, IgG1, name in Kabat numbering, V domains shown)
VH: QVQLVESGGGVVQPGRSLRLSCAASGFTFSNAWMHWVRQAPGKGLEWVAQIKAKSNNYATYYAESVKGRFTISRDDSKNSLYLQMNSLKTEDTAVYYCRYVHYGAYYGVDAWGQGTTVTVSS
VL: DIVMTQSPLSLPVTPGEPASISCRSSQSLVHSNRNTYLHWYQQKPGQAPRLLIYSVSNRFSGVPDRFSGSGSGTDFTLKISRVEAEDVGVYYCGQGTQVPYTFGQGTKLEIK
notes: one-arm IgG1
B6: CE115HA000/GLS3000 K50T (antibody, IgG1, name in Kabat numbering, V domains shown)
VH: QVQLVESGGGVVQPGRSLRLSCAASGFTFSNAWMHWVRQAPGKGLEWVAQIKAKSNNYATYYAESVKGRFTISRDDSKNSLYLQMNSLKTEDTAVYYCRYVHYGAYYGVDAWGQGTTVTVSS
VL: DIVMTQSPLSLPVTPGEPASISCRSSQSLVHSNRNTYLHWYQQKPGQAPRLLIYTVSNRFSGVPDRFSGSGSGTDFTLKISRVEAEDVGVYYCGQGTQVPYTFGQGTKLEIK
notes: one-arm IgG1
B7: CE115HA000/GLS3000 K50R (antibody, IgG1, name in Kabat numbering, V domains shown)
VH: QVQLVESGGGVVQPGRSLRLSCAASGFTFSNAWMHWVRQAPGKGLEWVAQIKAKSNNYATYYAESVKGRFTISRDDSKNSLYLQMNSLKTEDTAVYYCRYVHYGAYYGVDAWGQGTTVTVSS
VL: DIVMTQSPLSLPVTPGEPASISCRSSQSLVHSNRNTYLHWYQQKPGQAPRLLIYRVSNRFSGVPDRFSGSGSGTDFTLKISRVEAEDVGVYYCGQGTQVPYTFGQGTKLEIK
notes: one-arm IgG1
B8: CE115HA000/GLS3000 K107E (antibody, IgG1, name in Kabat numbering, V domains shown)
VH: QVQLVESGGGVVQPGRSLRLSCAASGFTFSNAWMHWVRQAPGKGLEWVAQIKAKSNNYATYYAESVKGRFTISRDDSKNSLYLQMNSLKTEDTAVYYCRYVHYGAYYGVDAWGQGTTVTVSS
VL: DIVMTQSPLSLPVTPGEPASISCRSSQSLVHSNRNTYLHWYQQKPGQAPRLLIYKVSNRFSGVPDRFSGSGSGTDFTLKISRVEAEDVGVYYCGQGTQVPYTFGQGTKLEIE
notes: one-arm IgG1
B9: CE115HA000/GLS3000 L27bF (antibody, IgG1, name in Kabat numbering, V domains shown)
VH: QVQLVESGGGVVQPGRSLRLSCAASGFTFSNAWMHWVRQAPGKGLEWVAQIKAKSNNYATYYAESVKGRFTISRDDSKNSLYLQMNSLKTEDTAVYYCRYVHYGAYYGVDAWGQGTTVTVSS
VL: DIVMTQSPLSLPVTPGEPASISCRSSQSFVHSNRNTYLHWYQQKPGQAPRLLIYKVSNRFSGVPDRFSGSGSGTDFTLKISRVEAEDVGVYYCGQGTQVPYTFGQGTKLEIK
notes: one-arm IgG1
B10: CE115HA000/GLS3000 L27bD (antibody, IgG1, name in Kabat numbering, V domains shown)
VH: QVQLVESGGGVVQPGRSLRLSCAASGFTFSNAWMHWVRQAPGKGLEWVAQIKAKSNNYATYYAESVKGRFTISRDDSKNSLYLQMNSLKTEDTAVYYCRYVHYGAYYGVDAWGQGTTVTVSS
VL: DIVMTQSPLSLPVTPGEPASISCRSSQSDVHSNRNTYLHWYQQKPGQAPRLLIYKVSNRFSGVPDRFSGSGSGTDFTLKISRVEAEDVGVYYCGQGTQVPYTFGQGTKLEIK
notes: one-arm IgG1
B11: CE115HA000/GLS3000 K50Q (antibody, IgG1, name in Kabat numbering, V domains shown)
VH: QVQLVESGGGVVQPGRSLRLSCAASGFTFSNAWMHWVRQAPGKGLEWVAQIKAKSNNYATYYAESVKGRFTISRDDSKNSLYLQMNSLKTEDTAVYYCRYVHYGAYYGVDAWGQGTTVTVSS
VL: DIVMTQSPLSLPVTPGEPASISCRSSQSLVHSNRNTYLHWYQQKPGQAPRLLIYQVSNRFSGVPDRFSGSGSGTDFTLKISRVEAEDVGVYYCGQGTQVPYTFGQGTKLEIK
notes: one-arm IgG1
B12: CE115HA000/GLS3000 L27bM (antibody, IgG1, name in Kabat numbering, V domains shown)
VH: QVQLVESGGGVVQPGRSLRLSCAASGFTFSNAWMHWVRQAPGKGLEWVAQIKAKSNNYATYYAESVKGRFTISRDDSKNSLYLQMNSLKTEDTAVYYCRYVHYGAYYGVDAWGQGTTVTVSS
VL: DIVMTQSPLSLPVTPGEPASISCRSSQSMVHSNRNTYLHWYQQKPGQAPRLLIYKVSNRFSGVPDRFSGSGSGTDFTLKISRVEAEDVGVYYCGQGTQVPYTFGQGTKLEIK
notes: one-arm IgG1
B13: CE115HA000/GLS3000 K74T (antibody, IgG1, name in Kabat numbering, V domains shown)
VH: QVQLVESGGGVVQPGRSLRLSCAASGFTFSNAWMHWVRQAPGKGLEWVAQIKAKSNNYATYYAESVKGRFTISRDDSKNSLYLQMNSLKTEDTAVYYCRYVHYGAYYGVDAWGQGTTVTVSS
VL: DIVMTQSPLSLPVTPGEPASISCRSSQSLVHSNRNTYLHWYQQKPGQAPRLLIYKVSNRFSGVPDRFSGSGSGTDFTLTISRVEAEDVGVYYCGQGTQVPYTFGQGTKLEIK
notes: one-arm IgG1
B14: CE115HA000/GLS3000 L27bP (antibody, IgG1, name in Kabat numbering, V domains shown)
VH: QVQLVESGGGVVQPGRSLRLSCAASGFTFSNAWMHWVRQAPGKGLEWVAQIKAKSNNYATYYAESVKGRFTISRDDSKNSLYLQMNSLKTEDTAVYYCRYVHYGAYYGVDAWGQGTTVTVSS
VL: DIVMTQSPLSLPVTPGEPASISCRSSQSPVHSNRNTYLHWYQQKPGQAPRLLIYKVSNRFSGVPDRFSGSGSGTDFTLKISRVEAEDVGVYYCGQGTQVPYTFGQGTKLEIK
notes: one-arm IgG1
B15: CE115HA000/GLS3000 L27bE (antibody, IgG1, name in Kabat numbering, V domains shown)
VH: QVQLVESGGGVVQPGRSLRLSCAASGFTFSNAWMHWVRQAPGKGLEWVAQIKAKSNNYATYYAESVKGRFTISRDDSKNSLYLQMNSLKTEDTAVYYCRYVHYGAYYGVDAWGQGTTVTVSS
VL: DIVMTQSPLSLPVTPGEPASISCRSSQSEVHSNRNTYLHWYQQKPGQAPRLLIYKVSNRFSGVPDRFSGSGSGTDFTLKISRVEAEDVGVYYCGQGTQVPYTFGQGTKLEIK
notes: one-arm IgG1

The binders below were run against T1, CD3 epsilon homodimer protein (UniProt P07766 23-126) (assay: SPR, antibody over immobilised CD3e homodimer;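 also: SPR at 25 °C with CD3 epsilon homodimer amine-coupled to a CM4 sensor chip and antibody flowed over as analyte in HBS-EP+ running buffer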).
T1 construct: also called CD3 (CD3 epsilon)
T1 sequence (P07766 23-126): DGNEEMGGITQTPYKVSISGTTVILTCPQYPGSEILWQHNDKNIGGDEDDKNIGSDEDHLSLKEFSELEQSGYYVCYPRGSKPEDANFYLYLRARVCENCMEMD

First: B1
Second: B2
The “KD ratio to GLS3000” value of the first is higher: 27.7 for the first, 1.17 for the second.

First: B3
Second: B4
The “KD ratio to GLS3000” value of the first is higher: 195 for the first, 0.9 for the second.

First: B5
Second: B6
The “KD ratio to GLS3000” value of the first is higher: 45.3 for the first, 25.1 for the second.

First: B7
Second: B8
The “KD ratio to GLS3000” value of the first is higher: 1.83 for the first, 0.95 for the second.

Going from B9 to B10, the “KD ratio to GLS3000” value rises from 2.67 to 25.1.

First: B11
Second: B12
The “KD ratio to GLS3000” value of the first is higher: 8.13 for the first, 1.31 for the second.

First: B13
Second: B14
The “KD ratio to GLS3000” value of the first is lower: 0.85 for the first, 0.96 for the second.

With B15 the “KD ratio to GLS3000” value was 28.8.
